{
  "source": "paper PMC7984459",
  "biological_target": "Epac1-camps-PDE4A1",
  "assay": "molecular brightness analysis",
  "data": [
    {"substance": "Epac1-camps-PDE4A1", "values": [
      {"measurement": "stoichiometry N", "value": 2}
    ]}
  ]
}
